Measured values: patent US20210324028A1 (Pfizer, published 2021)

T1: human IL-2Rβ (human, UniProt P14784 27-240, limits assumed)
T1 construct: also called hIL-2Rβ; IL-2 receptor beta
T1 sequence (looked up): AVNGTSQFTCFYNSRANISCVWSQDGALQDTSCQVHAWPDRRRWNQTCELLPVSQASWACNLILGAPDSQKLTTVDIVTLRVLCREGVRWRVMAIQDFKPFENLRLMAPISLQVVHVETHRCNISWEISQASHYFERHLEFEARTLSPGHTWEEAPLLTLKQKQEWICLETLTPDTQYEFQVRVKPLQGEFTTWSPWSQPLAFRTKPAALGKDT


Legend:
human IL-15Rα [1] = target: T2, human IL-15Rα (human, UniProt Q13261 31-205, limits assumed); experiment: SPR 37C
T2 construct: also called hIL-15Rα; IL-15 receptor alpha
T2 sequence (Q13261 31-205 limits assumed): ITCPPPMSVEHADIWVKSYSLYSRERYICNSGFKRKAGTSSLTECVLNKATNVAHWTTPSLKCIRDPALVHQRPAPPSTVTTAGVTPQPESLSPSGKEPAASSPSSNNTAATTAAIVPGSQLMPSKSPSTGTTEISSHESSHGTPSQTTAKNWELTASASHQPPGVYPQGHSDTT

human IL-2Rβ [2] = target: T1, human IL-2Rβ; experiment: SPR 37C
human IL-2Rβ [3] = target: T1, human IL-2Rβ; experiment: SPR, steady state
human IL-15Rα [4] = target: T2, human IL-15Rα; experiment: SPR 37C, fusion captured by anti-human Fc
Experimental: (§1) Anti-human Fc sensor chips were prepared at 25° C. with a running buffer of 10 mM HEPES, 150 mM NaCl, 0.05% (v/v) Tween-20, pH 7.4. All surfaces of a Biacore CM4 sensor chip were activated with a 1:1 (v/v) mixture of 400 mM EDC and 100 mM NHS for 7 minutes, at a flow rate of 10 μL/min. An anti-human Fc reagent (Goat anti-human IgG Fc-γ specific, SouthernBiotech, Birmingham, Ala., Catalog #2014-01) was diluted to 50 μg/mL in 10 mM sodium acetate (pH 4.5) and injected on all flow cells for 7 minutes at 20 μL/min. All flow cells were blocked with 100 mM ethylenediamine in 200 mM Borate buffer pH 8.5 for 7 minutes at 10 μL/min.
(§2) All protein interaction experiments were performed at 37° C. using a running buffer of 10 mM HEPES, 150 mM NaCl, 0.05% (v/v) Tween-20, pH 7.4, 1 mg/mL BSA. Anti-PD-1-hIL-15 fusion proteins were captured at 10 μg/mL at a flow rate of 10 μL/min for 2 minutes. Different fusion proteins were captured in flow cells 2, 3 and 4. No protein was captured onto flow cell 1 which was used as a reference surface. […] After each analyte injection, dissociation was monitored for 5 minutes followed by regeneration of all flow cells with three 60-second injections of 75 mM phosphoric acid. […] For kinetic analysis, the double-referenced sensorgrams were fit globally to a simple 1:1 Langmuir with mass transport binding model using Biacore T200 Evaluation Software version 2.0. For steady-state affinity analysis, the double-referenced equilibrium binding responses were fit with a 1:1 Langmuir steady-state model using Biacore T200 Evaluation Software version 2.0.

human IL-2Rβ [5] = target: T1, human IL-2Rβ; experiment: SPR 37C, fusion captured by anti-human Fc
Experimental: as §1, §2

human IL-2Rβ [6] = target: T1, human IL-2Rβ; experiment: SPR, steady state, fusion captured
Experimental: as §1, §2

Row | binding result (human IL-15Rα [1]) | binding result (human IL-2Rβ [2]) | binding result (human IL-15Rα [4]) | Binder | further results
1 | no binding | – | – | hIL-15 V49R/D30P (ligand) NWVNVISDLKKIEDLIQSMHIDATLYTESPVHPSCKVTAMKCFLLELQRISLESGDASIHDTVENLIILANNSLSSNGNVTESGCKECEELEEKNIKEFLQSFVHIVQMFINTGGGGSGHHHHHHHHGGGLNDIFEAQKIEWHE | –
2 | no binding | no binding | – | hIL-15 V49R/L69P (ligand) NWVNVISDLKKIEDLIQSMHIDATLYTESDVHPSCKVTAMKCFLLELQRISLESGDASIHDTVENLIIPANNSLSSNGNVTESGCKECEELEEKNIKEFLQSFVHIVQMFINTGGGGSGHHHHHHHHGGGLNDIFEAQKIEWHE | –
3 | no binding | no binding | – | hIL-15 V49R/I68P (ligand) NWVNVISDLKKIEDLIQSMHIDATLYTESDVHPSCKVTAMKCFLLELQRISLESGDASIHDTVENLIPLANNSLSSNGNVTESGCKECEELEEKNIKEFLQSFVHIVQMFINTGGGGSGHHHHHHHHGGGLNDIFEAQKIEWHE | –
4 | no binding | no binding | – | hIL-15 V49R/L69K (ligand) NWVNVISDLKKIEDLIQSMHIDATLYTESDVHPSCKVTAMKCFLLELQRISLESGDASIHDTVENLIIKANNSLSSNGNVTESGCKECEELEEKNIKEFLQSFVHIVQMFINTGGGGSGHHHHHHHHGGGLNDIFEAQKIEWHE | –
5 | no binding | – | – | hIL-15 V49R/V31K (ligand) NWVNVISDLKKIEDLIQSMHIDATLYTESDKHPSCKVTAMKCFLLELQRISLESGDASIHDTVENLIILANNSLSSNGNVTESGCKECEELEEKNIKEFLQSFVHIVQMFINTGGGGSGHHHHHHHHGGGLNDIFEAQKIEWHE | Kd (human IL-2Rβ [3]): > 500 nM
6 | – | – | no binding (tested: 3000 nM) | xmPD-1-hIL15 V49R/E46G/E64Q/D30N/I68S (other, not restated for this mutant; also called xmPD1-hIL15_V49R-E46G-E64Q-I68S-D30N) heavy 1: HHHHHHHHGGGGSGSGGEVQLVESGGGLVKPGGSLELSCAASGFTFSSYWMSWVRQAPEKGLEWVAAISPSGGSTYYADSVKGRFTISRDNAKNTLFLQMTSLRSEDTAMYYCAKESWGAYYDLWGQGTTVTVSSASTKGPSVFPLAPCSRSTSESTAALGCLVKDYFPEPVTVSWNSGALTSGVHTFPAVLQSSGLYSLSSVVTVPSSNFGTQTYTCNVDHKPSNTKVDKTVERKCRVRCPRCPAPPVAGPSVFLFPPKPKDTLMISRTPEVTCVVVAVSHEDPEVQFNWYVDGVEVHNAKTKPREEQFNSTFRVVSVLTVVHQDWLNGKEYKCKVSNKGLPSSIEKTISKTKGQPREPQVYTLPPSREEMTKNQVSLTCLVKGFYPSDIAVEWESNGQPENNYKTTPPMLDSDGSFFLYSRLTVDKSRWQQGNVFSCSVMHEALHNHYTQKSLSLSPGK heavy 2: EVQLVESGGGLVKPGGSLELSCAASGFTFSSYWMSWVRQAPEKGLEWVAAISPSGGSTYYADSVKGRFTISRDNAKNTLFLQMTSLRSEDTAMYYCAKESWGAYYDLWGQGTTVTVSSASTKGPSVFPLAPCSRSTSESTAALGCLVKDYFPEPVTVSWNSGALTSGVHTFPAVLQSSGLYSLSSVVTVPSSNFGTQTYTCNVDHKPSNTKVDKTVERKCEVECPECPAPPVAGPSVFLFPPKPKDTLMISRTPEVTCVVVAVSHEDPEVQFNWYVDGVEVHNAKTKPREEQFNSTFRVVSVLTVVHQDWLNGKEYKCKVSNKGLPSSIEKTISKTKGQPREPQVYTLPPSREEMTKNQVSLTCEVKGFYPSDIAVEWESNGQPENNYKTTPPMLDSDGSFFLYSKLTVDKSRWQQGNVFSCSVMHEALHNHYTQKSLSLSPGSGGGGGTSATATPGANWVNVISDLKKIEDLIQSMHIDATLYTESNVHPSCKVTAMKCFLLGLQRISLESGDASIHDTVQNLISLANNSLSSNGNVTESGCKECEELEEKNIKEFLQSFVHIVQMFINT light: DIVMTQSPSSLSVSAGDKVTMSCRASQGISSWLAWYQQKPWQPPKLLIYKASTLESGVPDRFTGSGSGTDFTLTISSVQAEDLAVYYCQQSYSTPWTFGGGTKLEIKGTVAAPSVFIFPPSDEQLKSGTASVVCLLNNFYPREAKVQWKVDNALQSGNSQESVTEQDSKDSTYSLSSTLTLSKADYEKHKVYACEVTHQGLSSPVTKSFNRGEC | binding result (human IL-2Rβ [5]): no binding (tested: 3000 nM)
7 | – | – | no binding (tested: 3000 nM) | xmPD-1-hIL15Rasu-hIL15(E64Q/D30N/M109A) (other, not restated for this mutant) heavy 1: HHHHHHHHGGGGSGSGGEVQLVESGGGLVKPGGSLELSCAASGFTFSSYWMSWVRQAPEKGLEWVAAISPSGGSTYYADSVKGRFTISRDNAKNTLFLQMTSLRSEDTAMYYCAKESWGAYYDLWGQGTTVTVSSASTKGPSVFPLAPCSRSTSESTAALGCLVKDYFPEPVTVSWNSGALTSGVHTFPAVLQSSGLYSLSSVVTVPSSNFGTQTYTCNVDHKPSNTKVDKTVERKCRVRCPRCPAPPVAGPSVFLFPPKPKDTLMISRTPEVTCVVVAVSHEDPEVQFNWYVDGVEVHNAKTKPREEQFNSTFRVVSVLTVVHQDWLNGKEYKCKVSNKGLPSSIEKTISKTKGQPREPQVYTLPPSREEMTKNQVSLTCLVKGFYPSDIAVEWESNGQPENNYKTTPPMLDSDGSFFLYSRLTVDKSRWQQGNVFSCSVMHEALHNHYTQKSLSLSPGK heavy 2: EVQLVESGGGLVKPGGSLELSCAASGFTFSSYWMSWVRQAPEKGLEWVAAISPSGGSTYYADSVKGRFTISRDNAKNTLFLQMTSLRSEDTAMYYCAKESWGAYYDLWGQGTTVTVSSASTKGPSVFPLAPCSRSTSESTAALGCLVKDYFPEPVTVSWNSGALTSGVHTFPAVLQSSGLYSLSSVVTVPSSNFGTQTYTCNVDHKPSNTKVDKTVERKCEVECPECPAPPVAGPSVFLFPPKPKDTLMISRTPEVTCVVVAVSHEDPEVQFNWYVDGVEVHNAKTKPREEQFNSTFRVVSVLTVVHQDWLNGKEYKCKVSNKGLPSSIEKTISKTKGQPREPQVYTLPPSREEMTKNQVSLTCEVKGFYPSDIAVEWESNGQPENNYKTTPPMLDSDGSFFLYSKLTVDKSRWQQGNVFSCSVMHEALHNHYTQKSLSLSPGSGGGGGTSATATPGAITCPPPMSVEHADIWVKSYSLYSRERYICNSGFKRKAGTSSLTECVLNKATNVAHWTTPSLKCIRDPALVHQRPAPPSGGSGGGGSGGGSGGGGSGGNWVNVISDLKKIEDLIQSMHIDATLYTESNVHPSCKVTAMKCFLLELQVISLESGDASIHDTVQNLIILANNSLSSNGNVTESGCKECEELEEKNIKEFLQSFVHIVQAFINT light: DIVMTQSPSSLSVSAGDKVTMSCRASQGISSWLAWYQQKPWQPPKLLIYKASTLESGVPDRFTGSGSGTDFTLTISSVQAEDLAVYYCQQSYSTPWTFGGGTKLEIKGTVAAPSVFIFPPSDEQLKSGTASVVCLLNNFYPREAKVQWKVDNALQSGNSQESVTEQDSKDSTYSLSSTLTLSKADYEKHKVYACEVTHQGLSSPVTKSFNRGEC | Kd (human IL-2Rβ [6]): 315 nM
8 | – | – | no binding (tested: 3000 nM) | xmPD-1-hIL15 V49R/E46G/E64Q/D30N/I68S/M109A (other, not restated for this mutant; also called xmPD1-hIL15_V49R-E46G-E64Q-I68S-D30N-M109A) heavy 1: HHHHHHHHGGGGSGSGGEVQLVESGGGLVKPGGSLELSCAASGFTFSSYWMSWVRQAPEKGLEWVAAISPSGGSTYYADSVKGRFTISRDNAKNTLFLQMTSLRSEDTAMYYCAKESWGAYYDLWGQGTTVTVSSASTKGPSVFPLAPCSRSTSESTAALGCLVKDYFPEPVTVSWNSGALTSGVHTFPAVLQSSGLYSLSSVVTVPSSNFGTQTYTCNVDHKPSNTKVDKTVERKCRVRCPRCPAPPVAGPSVFLFPPKPKDTLMISRTPEVTCVVVAVSHEDPEVQFNWYVDGVEVHNAKTKPREEQFNSTFRVVSVLTVVHQDWLNGKEYKCKVSNKGLPSSIEKTISKTKGQPREPQVYTLPPSREEMTKNQVSLTCLVKGFYPSDIAVEWESNGQPENNYKTTPPMLDSDGSFFLYSRLTVDKSRWQQGNVFSCSVMHEALHNHYTQKSLSLSPGK heavy 2: EVQLVESGGGLVKPGGSLELSCAASGFTFSSYWMSWVRQAPEKGLEWVAAISPSGGSTYYADSVKGRFTISRDNAKNTLFLQMTSLRSEDTAMYYCAKESWGAYYDLWGQGTTVTVSSASTKGPSVFPLAPCSRSTSESTAALGCLVKDYFPEPVTVSWNSGALTSGVHTFPAVLQSSGLYSLSSVVTVPSSNFGTQTYTCNVDHKPSNTKVDKTVERKCEVECPECPAPPVAGPSVFLFPPKPKDTLMISRTPEVTCVVVAVSHEDPEVQFNWYVDGVEVHNAKTKPREEQFNSTFRVVSVLTVVHQDWLNGKEYKCKVSNKGLPSSIEKTISKTKGQPREPQVYTLPPSREEMTKNQVSLTCEVKGFYPSDIAVEWESNGQPENNYKTTPPMLDSDGSFFLYSKLTVDKSRWQQGNVFSCSVMHEALHNHYTQKSLSLSPGSGGGGGTSATATPGANWVNVISDLKKIEDLIQSMHIDATLYTESNVHPSCKVTAMKCFLLGLQRISLESGDASIHDTVQNLISLANNSLSSNGNVTESGCKECEELEEKNIKEFLQSFVHIVQAFINT light: DIVMTQSPSSLSVSAGDKVTMSCRASQGISSWLAWYQQKPWQPPKLLIYKASTLESGVPDRFTGSGSGTDFTLTISSVQAEDLAVYYCQQSYSTPWTFGGGTKLEIKGTVAAPSVFIFPPSDEQLKSGTASVVCLLNNFYPREAKVQWKVDNALQSGNSQESVTEQDSKDSTYSLSSTLTLSKADYEKHKVYACEVTHQGLSSPVTKSFNRGEC | binding result (human IL-2Rβ [5]): no binding (tested: 3000 nM)
